T1: human GITR (amino acids M1-V241, NCBI Accession #NP_004186.1) expressed on cells (human, UniProt Q9Y5U5 26-241)
T1 sequence: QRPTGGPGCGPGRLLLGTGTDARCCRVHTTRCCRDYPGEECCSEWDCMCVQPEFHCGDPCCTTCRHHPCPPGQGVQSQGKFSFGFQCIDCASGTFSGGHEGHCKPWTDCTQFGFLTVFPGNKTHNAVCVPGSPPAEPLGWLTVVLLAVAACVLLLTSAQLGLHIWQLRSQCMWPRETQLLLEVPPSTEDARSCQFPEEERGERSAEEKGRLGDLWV

T2: mfGITR.mmh (Macaca fasicularis)
T2 construct: soluble monomeric construct; also called Macaca fasicularis (mf) GITR.mmh; cynomolgus GITR protein
T2 chain: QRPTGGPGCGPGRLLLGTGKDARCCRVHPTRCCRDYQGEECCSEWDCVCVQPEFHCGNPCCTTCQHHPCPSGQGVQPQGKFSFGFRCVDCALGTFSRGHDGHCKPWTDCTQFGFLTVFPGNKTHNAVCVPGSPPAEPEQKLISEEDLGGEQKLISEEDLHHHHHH

T3: hGITR.mFc (human)
T3 construct: soluble dimeric construct with mouse Fc; also called dimeric human GITR
T3 chain: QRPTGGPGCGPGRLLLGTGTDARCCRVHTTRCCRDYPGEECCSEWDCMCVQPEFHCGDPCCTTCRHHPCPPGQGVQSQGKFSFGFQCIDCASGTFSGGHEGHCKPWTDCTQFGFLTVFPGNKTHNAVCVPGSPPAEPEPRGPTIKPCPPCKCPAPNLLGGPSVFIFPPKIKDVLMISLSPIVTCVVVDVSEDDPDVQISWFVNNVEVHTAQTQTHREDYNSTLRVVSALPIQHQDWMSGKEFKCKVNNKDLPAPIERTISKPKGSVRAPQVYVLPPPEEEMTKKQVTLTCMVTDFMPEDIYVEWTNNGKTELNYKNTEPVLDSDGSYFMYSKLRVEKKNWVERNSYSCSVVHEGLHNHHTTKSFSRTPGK

T4: hGITR.mmh (human)
T4 construct: soluble monomeric construct; also called human (h) GITR.mmh; monomeric human GITR
T4 chain: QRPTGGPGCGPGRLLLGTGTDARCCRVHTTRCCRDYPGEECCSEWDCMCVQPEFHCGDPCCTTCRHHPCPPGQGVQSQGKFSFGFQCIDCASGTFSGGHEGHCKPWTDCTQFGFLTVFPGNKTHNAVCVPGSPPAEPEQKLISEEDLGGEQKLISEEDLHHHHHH


Columns and labels:
[1] = molecular target: T1, human GITR (amino acids M1-V241, NCBI …); test: cell-based or functional assay
[2] = molecular target: T1, human GITR (amino acids M1-V241, NCBI …); test: ECL cell binding, hGITR/HEK293-D9
Procedure: Nonspecific binding sites were blocked with 2% BSA (w/v)+PBS for 1 h at room temperature (RT). Next, serial dilutions of anti-GITR antibodies, ranging from 1.7 pM to 100 nM, were added to cells for 1 h at RT. Plates were then washed to remove unbound antibodies (AquaMax2000 plate washer, MSD Analytical Technologies) and plate-bound antibodies were detected with a SULFO-TAG™ conjugated anti-human kappa light chain IgG antibody (Jackson Immunoresearch) for 1 h at RT.
Following washes, luminescent signals were recorded with a SECTOR Imager 6000 (MSD) instrument. Direct binding signals (relative light units, RLU) were analyzed as a function of the antibody concentration and data were fitted with a sigmoidal (four-parameter logistic) dose-response model using GraphPad Prism™ software. […] The signal detected with 100 nM antibody binding to the hGITR expressing cells versus parental cells was recorded as an indication of intensity and specificity of GITR binding.

[3] = molecular target: T2, mfGITR.mmh; test: SPR 37C, mAb capture
Procedure: (§1) (Table 3). […] GITR proteins were injected over the sensor surface at a flow rate of 30 μL/minute. All Biacore binding studies were performed in a buffer composed of 0.01M HEPES pH 7.4, 0.15M NaCl, 3 mM EDTA, 0.05% v/v Surfactant P20 (HBS-ET running buffer). Antibody-reagent association was monitored for 4 minutes while dissociation in HBS-ET running buffer (10 mM HEPES, 150 mM NaCl, 3 mM EDTA, 0.05% (v/v) Surfactant P20, pH 7.4) was monitored for 10 minutes. Kinetic association (kₐ) and dissociation (kd) rate constants were determined by fitting the real-time sensorgrams to a 1:1 binding model using Scrubber 2.0c curve fitting software. Binding dissociation equilibrium constants (KD) and dissociative half-lives (t ½) were calculated from the kinetic rate constants as: KD [M]=kd/kₐ; and t_{1/2}(min)=(ln 2/(60*kd). Results are summarized in Table 3.

[4] = molecular target: T3, hGITR.mFc; test: SPR 37C, mAb capture
Procedure: as §1

[5] = molecular target: T4, hGITR.mmh; test: SPR 37C, mAb capture
Procedure: as §1

% Activation, NF-kB-Luc, non-anchored [1] [%] | % Blocking, NF-kB-Luc, non-anchored [1] [%] | EC50, hGITR activation, NF-kB-Luc, non-anchored [1] [nM] | IC50, blocking of hGITRL stimulation, NF-kB-Luc, non-anchored [1] [nM] | Average Signal (RLU) at 100 nM [2] [RLU] | EC50 [2] [nM] | Kd [3] [nM] | koff [3] [s⁻¹] | kon [3] [M⁻¹ s⁻¹] | t½ [3] [min] | Kd [4] [nM] | koff [4] [s⁻¹] | kon [4] [M⁻¹ s⁻¹] | t½ [4] [min] | Kd [5] [nM] | koff [5] [s⁻¹] | kon [5] [M⁻¹ s⁻¹] | t½ [5] [min] | Binder
30 | 50 | 1.2 | 1.1 | 5830 | 0.43 | 122 | 0.0166 | 137000 | 0.7 | 0.159 | 0.000153 | 965000 | 75.5 | 2.79 | 0.00123 | 439000 | 9.4 | H1H14486P (antibody, human IgG1, V domains shown, human IgG1 (H1H)) VH: QVQLVESGGGVVQPGRSLRLSCAASGFTFSNYGMHWVRQAPGKGLEWVAVIWYPGSNKFYTDSVEGRFTISRDNSKNTVYLQMDSLRAEDTAVYYCARGGALGVDYYYGMDVWGQGTTVTVSS VL: AIQMTQSPSSLSASVGDRVTLTCRASQGIRNDLGWYQQKPGKAPNFLIYSASSLQSGVPSRFSGSGSGTDFTLTISSLQPEDFATYYCLQNYNYPWTFGQGTKVEIK
10 | 80 | 1.1 | 0.9 | 6450 | 0.24 | 85.9 | 0.0171 | 199000 | 0.7 | 0.537 | 0.000583 | 1.09e+06 | 19.8 | 63 | 0.0167 | 266000 | 0.7 | H1H14520P (antibody, human IgG1, V domains shown, human IgG1 (H1H)) VH: QVQLVESGGGVVQPGRSLRLSCAASGFTFSSFGMHWVRQAPGKGLEWVAVISYDGRNRYYADSVKGRFTISRDNSKNTLYLQMNSLSAEDTAMFYCAKDGFGNSFDYWGQGTLVTVSS VL: DVVMTQSPLSLPVTLGQPASISCRSSQSLLYSDGNTYLTWFQQRPGQSPRRLIYKVSNRDSGVPDRFSGSGSGTDFTLTISRVEAEDVGIYYCMQGTHWPWTFGQGTKVEIK
25 | 90 | 1.2 | 0.6 | 7220 | 0.3 | 1400 | 0.014 | 10000 | 0.8 | 0.365 | 0.000191 | 524000 | 60.4 | 13.4 | 0.0025 | 186000 | 4.6 | H1H14493P (antibody, human IgG1, V domains shown, human IgG1 (H1H)) VH: QVQLVESGGGVVQPGRSLRLSCAASGFNFRSYGMHWVRQAPGKGLEWVAVIWYDGSNKYYADSVKGRFTISRDSSRDTLFLQMNSLRAGDTAVYYCARGGMLGRDYYYGMDVWGQGTTVTVSS VL: DIQMTQSPSSLSASVGDRVTITCRASQGIRNDLGWYQQKPGKAPKRLIYAASSLQSGVPSRFSGSGSGTEFTLTISSLQPEDFATYYCLQHNSYPNTFGQGTKLEIK
